Article PMC6797804 (2019)
Substitutions are numbered along the chain they refer to. Ends that are not written are not given here. * marks the point of attachment. Crotonyl(E) = C/C=C/C(=O)*

T1: MORF DPF domain (residues 211–322) F218A (human, UniProt Q8WYB5 211-322, F218A)
T1 sequence: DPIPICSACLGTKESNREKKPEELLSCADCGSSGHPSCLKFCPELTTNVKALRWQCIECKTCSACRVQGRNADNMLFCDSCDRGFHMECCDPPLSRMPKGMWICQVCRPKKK

T2: MORF DPF domain (residues 211–322), wild type (human, UniProt Q8WYB5 211-322)
T2 chain: T1 sequence with A8F

T3: MORF DPF domain (residues 211–322) F287A/R306E/K309E (human, UniProt Q8WYB5 211-322, F287A | R306E | K309E)
T3 sequence: T1 sequence with A8F, F77A, R96E, K99E


Columns and labels:
[1] = target: MORF DPF domain (residues 211–322) F287A (human, UniProt Q8WYB5 211-322, F287A); assay: NMR
Chain of MORF DPF domain (residues 211–322) F287A (Q8WYB5 211-322 F287A): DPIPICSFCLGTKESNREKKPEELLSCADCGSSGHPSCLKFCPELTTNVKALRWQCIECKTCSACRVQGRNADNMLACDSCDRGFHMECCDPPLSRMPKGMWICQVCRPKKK

[2] = target: T1, MORF DPF domain (residues 211–322) F218A
[3] = target: T2, MORF DPF domain (residues 211–322), …
[4] = target: T3, MORF DPF domain (residues 211–322) …; assay: NMR

Binder	Kd [1]	Kd [2]	Kd [3]	Kd [4]
ARTKQTARKSTGGKAPRKQ [unmodified histone H3 peptide (residues 1–19 of H3)]	8000 µM	3.3 µM	3.6 µM	
ARTKQTARKSTGGK(Crotonyl(E))APRKQ [histone H3K14cr peptide (residues 1–19 of H3)]				285 µM
